The labels stand for the following.
B1: HER2 HuMab 025 (antibody, V domains shown)
VH: QVQLQQWGAGLLKPSETLSLTCAVYGGSFSDYYWNWIRQPPGKGLEWIGEIHHSGSTNYNPSLKSRVTISVDTSKNQFSLKLSSVTAADTAVYYCARGYYDSGVYYFDYWAQGTLVTVSS
VL: DIQMTQSPSSLSASVGDRVTITCRASQGISRWLAWYQQKPEKAPKSLIYAASSLRSGVPSRFSGSGSGTDFTLTISSLQPEDFATYYCQQYNSYPITFGQGTRLEIK
notes: also called PC1014-025; TH1014-025
B2: HER2 HuMab 098 (antibody, V domains shown)
VH: EVQLLESGGGLVQPGGSLRLSCAASGFTFSNYGMSWVRQAPGKGLEWVSAISGSAYSTYYADSVKGRFTISRDNSKNTLWLQMNSLRAEDTAVYYCAKAHYHGSGSYYTLFDYWGQGTLVTVSS
VL: B1 VL with R31S, R55Q, I96Y, R103K
notes: also called PC1014-098; TH1014-098
B3: HER2 HuMab 159 (antibody, V domains shown)
VH: EVQLVQSGAEVKKPGESLKISCKGSGYNFTSYWIGWVRQMPGKGLEWMGIIYPGDSDTRYSPSFQGQVTISADKSISTAYLQWSSLKASDTAMYYCARWGTYYDILTGYFNWFDPWGQGTLVTVSS
VL: B1 VL with R31S, R55Q, N92Y, S93I, I96W, R103K, L104V
notes: also called PC1014-159
B4: HER2 HuMab 091 (antibody, V domains shown)
VH: QVQLQQWGAGLLKPSETLSLTCAVSGGSFSGYYWTWIRQPPGKGLEWIGEIYHSGDTNYNPSLKSRVTISVDTSKNQFSLKLYSVTAADTAVYYCARLYFGSGIYYLDYWGQGTLVTVSS
VL: B1 VL with R31S, A34V, R55Q, Y94F, I96P, R103K, L104V
notes: also called PC1014-091
B5: HER2 HuMab 111 (antibody, V domains shown)
VH: QVQLVQSGAEVKKPGSSVKVSCKASGGTFSSYGISWVRQAPGPGLEWMGRIIPILGIANYAQKFQGRVTITADKSTNTAYMELSSLRSEDTAVYYCARDQEYSSNWYYWGQGTLVTVSS
VL: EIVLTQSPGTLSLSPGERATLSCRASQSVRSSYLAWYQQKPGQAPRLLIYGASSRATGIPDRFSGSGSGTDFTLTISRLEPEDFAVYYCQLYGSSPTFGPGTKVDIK
notes: also called PC1014-111
B6: HER2 HuMab 060 (antibody, V domains shown)
VH: EVQLVQSGAEVKKPGESLKISCKGSGYRFTSYWIGWVRQMPGKGLEWMGSIYPGDSYTRNSPSFQGQVTISADKSIATAYLQWNSLKASDTAMYYCARHAGDFYYFDGLDVWGQGTTVTVSS
VL: not shown
notes: also called PC1014-060
B7: HER2 HuMab 127 (antibody, V domains shown)
VH: EVQLVQSGAEVKKPGESLTISCKGSGYSFSIYWIGWVRQMPGKGLEWMGIIFPGDSDIRYSPSFQGQVTISADKSISTAYLQWSSLKASDTAMYYCARQPGDWSPRHWYFDLWGRGTLVTVSS
VL: VIWMTQSPSLLSASTGDRVTISCRMSQGISSYLAWYQQKPGKAPELLIYAASTLQSGVPSRFSGSGSGTDFTLTISYLQSEDFATYYCQQYYSFPLTFGGGTKVEIK
B8: HER2 HuMab 132 (antibody, V domains shown)
VH: QVQLVQSGAEVKKPGASVKVSCKASGYTFTSYGISWVRQAPGQGLEWMGWISAYNGNSNYVQKFQGRVTMTTDTTTSTAYMELRSLTSDDTAVYYCAREYSYDSGTYFYYGMDVWGQGTTVTVSS
VL: EIVLTQSPATLSLSPGERATLSCRASQSVSSYLAWYQQKPGQAPRLLIYDASNRATGIPARFSGSGSGTDFTLTISSLEPEDFAVYYCQQRSNWPMYTFGQGTKLEIK
notes: also called PC1014-132
B9: HER2 HuMab 106 (antibody, V domains shown)
VH: EVQLVQSGAEVKKPGESLKISCKGSGYSFTRYWIGWVRQMPGKGLEWMGIIYPGDSDTRYSPSFQGQVTISADKSISTAYLQWSSLKASDTAMYYCARLTGDRGFDYYSGMDVWGQGTTVTVSS
VL: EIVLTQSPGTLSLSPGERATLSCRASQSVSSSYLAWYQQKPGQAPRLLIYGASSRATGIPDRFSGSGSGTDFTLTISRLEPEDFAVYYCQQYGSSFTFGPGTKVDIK
B10: HER2 HuMab 084 (antibody, V domains shown)
VH: QVQLVQSGAEVKKPGSSVKVSCKASGGTFRTYAINWVRQAPGQGLEWMGRINTVLGIVNHAQKFQGRVTITADKSTNTAYMELNSLRSEDTAVYYCAREKGVDYYYGIEVWGQGTTVTVSS
VL: DIQMTQSPSSVSASVGDRVTITCRASQGISSWLAWYQHKPGKAPKLLIYVASTLQSGVPSRFSGSGSGTDFTLTISSLQPEDFATYYCQQANSFPLTFGGGTKVEIK
notes: also called PC1014-084
B11: HER2 HuMab 005 (antibody, human IgG1, V domains shown)
VH: EVQLVQSGAEVKKPGESLKISCKASGYSFHFYWIGWVRQMPGKGLEWMGSIYPGDSDTRYRPSFQGQVTISADKSISTAYLQWTSLKASDTAIYYCARQRGDYYYFYGMDVWGQGTTVTVSS
VL: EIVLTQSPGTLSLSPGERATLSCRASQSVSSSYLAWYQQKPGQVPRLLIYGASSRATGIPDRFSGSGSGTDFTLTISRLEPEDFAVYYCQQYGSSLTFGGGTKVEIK
notes: Human IgG1,κ; also called PC1014-005; TH1014-005
B12: HER2 HuMab 059 (antibody, V domains shown)
VH: QVQLVQSGAEVKKPGASVRVPCKASGYTFTRYGISWVRQAPGQGLEWMGWISAYNGKTYYAQKLQGRVTMTTDTSTSTAYMELRSLRSDDTAVYYCARSPLLWFEELYFDYWGQGTLVTVSS
VL: EIVLTQSPGTLSLSPGERATLSCRASQSVSSTYLAWYQQKPGQAPRLLIYGASSRATGIPDRFSGSGSGTDFTLTISRLEPEDFAVYYCQQYGTSLFTFGPGTKVDIK
notes: also called PC1014-059
B13: HER2 HuMab 129 (antibody, V domains shown)
VH: QVQLVESGGGVVQPGRSLRLSCAASGFTFSTFAIHWVRQAPGKGLEWVAVISYDGGHKFYADSVKGRFTISRDNSKNTLYLQMNSLRAEDTAMYYCARGLGVWGAFDYWGQGTLVTVSS
VL: EIVLTQSPATLSLSPGERATLSCRASQSVSSYLAWYQQKPGQAPRLLIYDASNRATGIPARFSGSGSGTDFTLTISSLEPEDFAVYYCQQRSNWWTFGQGTKVEIK
notes: also called PC1014-129
B14: HER2 HuMab 169 (antibody, V domains shown)
VH: QVQLVQSGAEVKKPGASVKVSCKASGYTFTNYGISWVRQAPGQGLEWMGWLSAYSGNTIYAQKLQGRVTMTTDTSTTTAYMELRSLRSDDTAVYYCARDRIVVRPDYFDYWGQGTLVTVSS
VL: EIVLTQSPATLSLSPGERATLSCRASQSVSSYLAWYQQKPGQAPRLLIYDASNRATGIPARFSGSGSGTDFTLTISSLEPEDFAVYYCQQRSNWPRTFGQGTKVEIK
B15: HER2 HuMab 050 (antibody, V domains shown)
VH: EVQLLESGGGLVQPGGSLRLSCAASGFTFSSYAMNWVRQAPGKGLEWVSAISGRGGTTYYADSVKGRFTISRDNSKNTLYLQMSSLRAEDTAVYYCAKARANWDYFDYWGQGTLVTVSS
VL: B10 VL with V50A, T53I, L96I, G100Q, K103R, V104L
notes: also called PC1014-050
B16: IgG1-hu-CLB-T3/4-F405L (antibody, V domains shown)
VH: EVQLVESGGGLVKPGGSLRLSCAASGFTFSSYGMFWVRQAPGKGLEWVATISRYSRYIYYPDSVKGRFTISRDNAKNSLYLQMNSLRAEDTAVYYCARRPLYGSSPDYWGQGTLVTVSS
VL: EIVLTQSPATLSLSPGERATLSCSASSSVTYVHWYQQKPGQAPRLLIYDTSKLASGIPARFSGSGSGTDFTLTISSLEPEDFAVYYCFQGSGYPLTFGSGTKLEMR
notes: Expressed as IgG1,κ with F405L

Residue numbers refer to the chain shown, from its start. Names may count otherwise.

In general, EC50 refers to the concentration needed to bring the measured effect to its halfway point. Lower therefore signals a more potent agent. By EC50 (read off the curve) is commonly meant the concentration giving half of the maximal effect. Read a low EC50 (read off the curve) as greater potency.

For the first experiment, the target named is T1, human epidermal growth factor receptor 2 (HER2) (human, UniProt P04626 23-1255). The experiment is described as follows: cell-based or functional assay.
For B1, the “EC50, fab-CypHer5E internalization assay, AU565 cells” value (from here on “EC50 … AU565 cells”) worked out at 0.0301 mg/L and the “Maximal MFI, fab-CypHer5E internalization assay, AU565 cells” value (“Maximal MFI” for short) stood at 63400 MFI.

As for B2, the “EC50 … AU565 cells” value turned out to be 0.0138 mg/L and the “Maximal MFI” value was found to be 135000 MFI.

As to B3, the “Maximal MFI” value worked out at 92400 MFI.

Take B4: the “EC50 … AU565 cells” value is 0.033 mg/L and the “Maximal MFI” value came out at 50700 MFI.

Turning to B5, the “EC50 … AU565 cells” value turned out to be 0.0352 mg/L and the “Maximal MFI” value is 81700 MFI.

Consider B6, for which the “EC50 … AU565 cells” value amounted to 0.0362 mg/L and the “Maximal MFI” value came out at 68200 MFI.

Consider B7, for which the “EC50 … AU565 cells” value was around 0.00968 mg/L and the “Maximal MFI” value was found to be 138000 MFI.

Turning to B8, the “EC50 … AU565 cells” value turned out to be 0.0114 mg/L and the “Maximal MFI” value came to 112000 MFI.

Consider B9, for which the “EC50 … AU565 cells” value was 0.0686 mg/L and the “Maximal MFI” value is 57400 MFI.

Take B10: the “EC50 … AU565 cells” value is 0.0305 mg/L and the “Maximal MFI” value amounted to 71100 MFI.

With B11, the “EC50 … AU565 cells” value was 0.0214 mg/L and the “Maximal MFI” value was found to be 95100 MFI.

On to B12, for which the “EC50 … AU565 cells” value is 0.0148 mg/L and the “Maximal MFI” value was found to be 77100 MFI.

In the case of B13, the “EC50 … AU565 cells” value stood at 0.00715 mg/L and the “Maximal MFI” value is 60300 MFI.

Turning to B14, the “Maximal MFI” value came to 38800 MFI.

Another experiment concerns the target T1, human epidermal growth factor receptor …. Put plainly: flow cytometry on A431 cells (low HER2), PE-goat anti-human IgG, MFI; EC50 by non-linear regression (Example 12). (Flow cytometry measures light scatter and fluorescence of single cells or particles in a stream.)
Experimental: (§1) Binding of HER2 antibodies was detected using a Phycoerythrin (PE)-conjugated goat-anti-human IgG antibody (Jackson). […] EC₅₀ values were determined by means of non-linear regression (sigmoidal dose-response with variable slope) using GraphPad Prism V4.03 software (GraphPad Software, San Diego, Calif., USA).
For B5, the response was half-maximal at 0.996 mg/L (EC50).

In the case of B6, the EC50 is 1.98 mg/L.

On to B9, for which the EC50 stood at 1.66 mg/L.

The molecule B11 showed a half-maximal effective concentration (EC50) of 0.789 mg/L.

In turn, B12 came in with a concentration for a half-maximal effect (EC50) of 0.213 mg/L. Compared with the last molecule, the EC50 is about 3.7-fold lower.

The next experiment has the same target. The experiment is described as above. This is another data set of the same source.
Experimental: as §1
The molecule B3 had an EC50 of 0.855 mg/L.

Regarding B8, the midpoint of the response, the EC50, lay at 0.068 mg/L. This EC50 is about 13-fold lower than that of the molecule before.

Molecule B13 yielded a half-maximal effective concentration (EC50) of 0.316 mg/L. This EC50 lies about 4.6-fold higher than the previous one.

Take B14: a half-maximal response (EC50) required 0.415 mg/L.

The next experiment shares this target. Put plainly: flow cytometry on AU565 cells (high HER2), PE-goat anti-human IgG, MFI; EC50 by non-linear regression (Example 12).
Experimental: as §1
With B1, it took 0.58 mg/L to reach a half-maximal effect (EC50).

The molecule B2 came in with an EC50 of 0.336 mg/L.

B15: a half-maximal effect (EC50) was put at 0.722 mg/L.

Regarding B4, the concentration for a half-maximal effect (EC50) came out at 0.965 mg/L. The EC50 values of the last two molecules are within 1.5-fold of each other.

In turn, B7 showed an EC50 of 2.29 mg/L.

B10 came in with an EC50 of 0.491 mg/L.

For a further experiment the target is unchanged. The experiment is described as follows: flow cytometry on A431 cells (low HER2), PE-goat anti-human IgG, MFI; EC50 by non-linear regression (Example 12). This is another data set of the same source.
Experimental: as §1
Regarding B1, it took 0.128 mg/L to reach a half-maximal effect (EC50).

As for B2, the EC50 was 0.101 mg/L. This EC50 and that of the molecule before are within 1.5-fold of each other.

As for B15, a half-maximal response (EC50) required 1.14 mg/L. This EC50 lies about 11-fold higher than the previous one.

With B4, the concentration for a half-maximal effect (EC50) was determined as 0.633 mg/L.

On to B7, for which the 50% effective concentration (EC50) came to 0.27 mg/L.

B10 had a concentration for a half-maximal effect (EC50) of 0.498 mg/L.

Another experiment has the same target. Put plainly: flow cytometry on AU565 cells (high HER2), PE-goat anti-human IgG, MFI; EC50 by non-linear regression (Example 12). This is another data set of the same source.
Experimental: as §1
For B3, the concentration giving a half-maximal response (EC50) turned out to be 1.3 mg/L.

The molecule B8 returned a 50% effective concentration (EC50) of 0.911 mg/L. This EC50 and that of the molecule before are within 1.5-fold of each other.

In turn, B13 displayed a 50% effective concentration (EC50) of 0.578 mg/L.

The molecule B14 came in with a concentration giving a half-maximal response (EC50) of 0.908 mg/L.

A further experiment shares this target. The experiment is described as above. This is another data set of the same source.
Experimental: as §1
B5 came in with an EC50 of 0.915 mg/L.

Molecule B6 came in with a concentration for a half-maximal effect (EC50) of 2.68 mg/L.

With B9, it took 1.55 mg/L to reach a half-maximal effect (EC50).

B11 yielded an EC50 of 0.818 mg/L.

On to B12, for which the 50% effective concentration (EC50) worked out at 1.31 mg/L. This EC50 is about 1.6-fold higher than that of the molecule before.

The next experiment deals with T2, human CD3 protein complex (human, UniProt P07766 23-207; P09693 23-182; P04234 22-171; P20963 22-164).
T2 construct: whole, on cells; also called CD3 on Jurkat cells
T2 sequence (P07766 23-207, form in doubt, chain 1 of 4): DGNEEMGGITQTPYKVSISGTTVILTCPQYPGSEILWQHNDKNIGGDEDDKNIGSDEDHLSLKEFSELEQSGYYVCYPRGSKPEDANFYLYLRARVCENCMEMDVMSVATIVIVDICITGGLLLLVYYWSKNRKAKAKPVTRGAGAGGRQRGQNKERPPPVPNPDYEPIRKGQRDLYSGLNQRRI
T2 sequence (P09693 23-182, form in doubt, chain 2 of 4): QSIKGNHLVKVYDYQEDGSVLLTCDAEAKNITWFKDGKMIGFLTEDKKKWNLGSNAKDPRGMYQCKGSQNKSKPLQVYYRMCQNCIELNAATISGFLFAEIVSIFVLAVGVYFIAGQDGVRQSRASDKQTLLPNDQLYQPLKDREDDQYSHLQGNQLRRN
T2 sequence (P04234 22-171, form in doubt, chain 3 of 4): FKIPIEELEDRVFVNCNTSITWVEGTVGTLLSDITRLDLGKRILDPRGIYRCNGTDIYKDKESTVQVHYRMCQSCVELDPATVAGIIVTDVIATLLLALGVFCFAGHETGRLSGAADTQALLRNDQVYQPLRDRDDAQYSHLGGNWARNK
T2 sequence (P20963 22-164, form in doubt, chain 4 of 4): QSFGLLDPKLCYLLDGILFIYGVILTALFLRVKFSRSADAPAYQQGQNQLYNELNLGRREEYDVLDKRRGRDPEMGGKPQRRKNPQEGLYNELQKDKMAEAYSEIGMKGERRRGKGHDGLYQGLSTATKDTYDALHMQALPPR
Put plainly: flow cytometry on Jurkat cells (CD3-expressing T cell line), MFI (PE) (Example 21).
With B16, the “EC50 (read off the curve)” value was around 0.03 mg/L.

(Values after patent publication US20140170149A1 (Genmab, published 2014).)
